Substrate in series [1]: NC(=O)C[C@H](N)C(=O)O
The experiment in a line: purified protein. In kind it is biochemical, Saccharomyces cerevisiae. To be noted: 50 mM Tris-HCl pH 8.0, 37 °C, no L-glutamine, sigmoidal, nH 2.2 ± 0.3.

Substrate in series [2]: NC(=O)C[C@H](N)C(=O)O
The experiment in a line: purified protein. To be noted: 50 mM Tris-HCl pH 8.0, 37 °C, nH 1.1 ± 0.1.

The values below come from paper PMC5099943, “Recombinant L-asparaginase 1 from Saccharomyces cerevisiae: an allosteric enzyme with antineoplastic activity” (Scientific Reports, 2016).

B1: ScASNase1 (L-asparaginase 1) (Saccharomyces cerevisiae S288C) (protein)
chain: LPRIKILGTGGTIASKAIDSSQTAGYHVDLTIQDLLDAIPDISKVCDIEYEQLCNVDSKDINEDILYKIYKGVSESLQAFDGIVITHGTDTLSETAFFIESTIDAGDVPIVFVGSMRPSTSVSADGPMNLYQAICIASNPKSRGRGVLVSLNDQISSGYYITKTNANSLDSFNVRQGYLGNFVNNEIHYYYPPVKPQGCHKFKLRVDGKHFKLPEVCILYAHQAFPPAIVNLVADKYDGIVLATMGAGSLPEEVNETCMKLSLPIVYSKRSMDGMVPIANVPKKGSKEDNLIASGYLSPEKSRILLQLCLAGNYTLEEIKHVFTGVYGG
As for B1, in “purified protein [1]”, the K0.5 amounted to 75 ± 27 µM, the Vmax is 0.042 µmol/min and the kcat turned out to be 217 ± 14 s⁻¹.

B2: EcASNase2 (L-ASNase type II from Escherichia coli, commercial) (Escherichia coli K-12) (protein)
chain: LPNITILATGGTIAGGGDSATKSNYTVGKVGVENLVNAVPQLKDIANVKGEQVVNIGSQDMNDNVWLTLAKKINTDCDKTDGFVITHGTDTMEETAYFLDLTVKCDKPVVMVGAMRPSTSMSADGPFNLYNAVVTAADKASANRGVLVVMNDTVLDGRDVTKTNTTDVATFKSVNYGPLGYIHNGKIDYQRTPARKHTSDTPFDVSKLNELPKVGIVYNYANASDLPAKALVDAGYDGIVSAGVGNGNLYKSVFDTLATAAKTGTAVVRSSRVPTGATTQDAEVDDAKYGFVASGTLNPQKARVLLQLALTQTKDPQQIQQIFNQY
As for B2, in “purified protein [2]”, the Km turned out to be 23 ± 5 µM, the Vmax came to 0.032 µmol/min, the kcat is 134 s⁻¹ and the kcat/Km amounted to 5.8e+06 M⁻¹ s⁻¹.
